Measured values reported in US8829175B2, “Nucleic acids encoding polyvalent protein complexes” (IBC Pharmaceuticals, Inc., priority 2003, dated 2014).

Legend:
[1] = molecular target: T1, CEA (Homo sapiens, UniProt P06731); assay: SE-HPLC analysis of in vitro immunoreactivity with CEA; format: binding; conditions: 125I-labeled protein; complexes bound to either one or two CEAs
T1 sequence (P06731 35-676): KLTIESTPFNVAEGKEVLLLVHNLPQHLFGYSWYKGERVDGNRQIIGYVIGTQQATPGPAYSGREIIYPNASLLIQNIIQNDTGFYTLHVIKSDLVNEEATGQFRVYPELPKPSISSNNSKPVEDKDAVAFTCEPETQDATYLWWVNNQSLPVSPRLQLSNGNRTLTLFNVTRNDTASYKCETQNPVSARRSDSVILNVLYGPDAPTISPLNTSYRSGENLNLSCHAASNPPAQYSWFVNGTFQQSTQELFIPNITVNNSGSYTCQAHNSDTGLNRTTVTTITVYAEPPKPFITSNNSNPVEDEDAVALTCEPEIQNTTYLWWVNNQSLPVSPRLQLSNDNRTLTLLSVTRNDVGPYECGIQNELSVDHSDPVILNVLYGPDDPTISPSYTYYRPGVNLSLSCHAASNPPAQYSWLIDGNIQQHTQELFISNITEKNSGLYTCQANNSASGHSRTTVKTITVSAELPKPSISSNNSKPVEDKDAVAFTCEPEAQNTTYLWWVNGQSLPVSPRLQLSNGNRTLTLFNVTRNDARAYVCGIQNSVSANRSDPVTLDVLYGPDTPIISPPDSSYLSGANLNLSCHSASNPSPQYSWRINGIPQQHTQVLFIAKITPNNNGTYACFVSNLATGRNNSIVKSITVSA
Source text: Confirmation that BS14HP has the ability to bind CEA bivalently was provided by SE-HPLC analysis of in vitro immunoreactivity. […] (FIG. 6B).

[2] = BIAcore binding to HSG immobilized on a sensorchip
Source text: If the W12 binding is allowed to approach saturation, the stoichiometry of the binding can be determined. The additional increase in RU resulting from W12 binding was compared to the initial RU increase of the hBS14 upon binding to the HSG-sensorchip. As each increase in RU level is directly proportional to the mass bound, the WI2:bsAb molar binding ratio can be calculated using the formula (RUWI2/RUhBS14)×(MWhBS14/MWWI2). hBS14 was designed to be bivalent for CEA (and monovalent for HSG) and as such should bind W12 (also bivalent) with a 1:1 molar ratio. […] When equal concentrations of hBS14 were bound to an HSG-sensorchip, BIAcore sensorgrams are indistinguishable between lots derived from either SP2/0 or YB2/0 cells (FIG. 17).

[3] = tested on: human colonic tumor (GW-39) xenograft; assay: Imaging of mice pre-targeted with hBS14 followed by 99mTc-IMP-245; format: in vivo, nude mice
Description: The experiment used 3 groups of 15 mice, each of which was necropsied, and 1 group of 5 mice that was imaged. Three groups of mice were administered 6 μCi ^125I-hBS14 (40 μg, 5.0×10^−10 moles). In the last group (imaging group), 3 mice received unlabeled hBS14. The amount of ^99mTc-IMP-245 administered to all the mice was ˜40 μCi (92 ng, 5.0×10^−11 moles) for a bispecific:peptide ratio of 10:1.
Animals 1 & 2 were given peptide only, while animals 3, 4, & 5 were administered hBS14 followed by peptide.

B1: hBS14: bispecific trivalent heterodimer (hMN-14×hMN-14×679) expressed in myeloma cells, SEQ ID NO:11 and 12 (antibody)
heavy: MEVQLVESGGDLVKPGGSLKLSCAASGFTFSIYTMSWLRQTPGKGLEWVATLSGDGDDIYYPDSVKGRFTISRDNAKNSLYLQMNSLRAEDTALYYCARVRLGDWDFDVWGQGTTVSVSSGGGGSDIQLTQSPSSLSASVGDRVTITCKASQDVGTSVAWYQQKPGKAPKLLIYWTSTRHTGVPSRFSGSGSGTDFTFTISSLQPEDIATYYCQQYSLYRSFGQGTKVEIKRLEGGGSEVQLVESGGGVVQPGRSLRLSCSASGFDFTTYWMSWVRQAPGKGLEWIGEIHPDSSTINYAPSLKDRFTISRDNAKNTLFLQMDSLRPEDTGVYFCASLYFGFPWFAYWGQGTPVTVSVDHHHHHH
light: MDIQLTQSPSSLSASVGDRVTITCKASQDVGTSVAWYQQKPGKAPKLLIYWTSTRHTGVPSRFSGSGSGTDFTFTISSLQPEDIATYYCQQYSLYRSFGQGTKVEIKRGGGQFMEVQLVESGGGVVQPGRSLRLSCSASGFDFTTYWMSWVRQAPGKGLEWIGEIHPDSSTINYAPSLKDRFTISRDNAKNTLFLQMDSLRPEDTGVYFCASLYFGFPWFAYWGQGTPVTVSGGGGSDIVMTQSPSSLAVSPGERVTLTCKSSQSLFNSRTRKNYLGWYQQKPGQSPKLLIYWASTRESGVPDRFSGSGSGTDFTLTINSLQAEDVAVYYCTQVYYLCTFGAGTKLELKRLDHHHHHH
SE-HPLC peak shifts on mixing with increasing amounts of CEA [1]: two distinct peak shifts
binding to immobilized HSG [2]: bound tightly
tumor visibility in images ([3]; 1 hr post-peptide administration, hBS14 48-hr clearance then 99mTc-IMP-245): clearly visible
location of signal in images ([3]; 24 hrs post-peptide administration, imaged for 20 minutes): only signal detected was located in the tumors
